Here are results for 18 substances from patent publication US20140017267A1, “METALLOPROTEINASE OLIGOPEPTIDES AND THEIR THERAPEUTIC USE” (priority 2012, published 2014).

One data set has as its system BALB/c female mouse. Put plainly: Immune response to individual peptide: immunization of mice, indirect solid-phase immunoenzymatic assay of antiserum (A450). Format: in vivo. As to conditions: for OD 450 Mean values (n = 3-5) for dilution 1:10,000: antiserum of mice immunized i.p. with 100 μg peptide+Str-HRP, day 38 bleed, serum dilution 1:10,000; for immune response: comparison among the 17 peptides. How it is done: Peptides were dissolved in appropriate volume 8M Urea and additional solution. Final concentration of peptide-Str-HRP solution was 0.8 mg/ml and 0.6 mg/ml for peptide and Str-HRP, respectively. After dissolving, 4 aliquotes in 0.2 ml portions were taken from each peptide solution, mixed with 0.6 ml Str-HRP and incubated over night at +4° C. Conjugate peptide with carrier protein (Str-HRP) was frozen and stored at −20° C. until further use. Final concentration of urea in peptide-Str-HRP solution was 2M for all peptides.
Day 0: Immunization with complete Freund's adjuvant Day 7: Booster with incomplete Freund's adjuvant Day 14: Booster with incomplete Freund's adjuvant Day 28: Booster with incomplete Freund's adjuvant Day 38: Terminal bleed
Method of Immunization: Frozen 0.8 ml aliquotes of peptide+Str-HRP conjugate were thawed at room temperature (RT) and mixed with 0.8 ml of appropriate adjuvant. Adjuvant was added and mixed by vortexing immediately before injections were given. Immunization was done by using intra peritoneal injections with 100 μg peptide per animal in final volume 250 μl of 1:1 (v:v) peptide+Str-HRP:adjuvant. Five animals were used per peptide.
Preparation of serum: At 38 days, the mouse was bled. Blood was collected in 2-ml microcentrifuge tube and the blood was allowed to clot at room temperature for 1 hour. Centrifugation using the microcentrifuge tube with the clot inside was done for 15 min at 2500 g and serum was collected. Volume for each sample was no less than 400 μl. The serum was stored at −20° C.
Testing immune response to individual peptide: Determination of mouse antibodies to peptide based on indirect solid-phase immunoenzymatic assay with avidin on solid-phase was performed. Materials used were 96-well polystyrene plates high binding (#9018 Costar, USA), all solution for ELISA: sample diluent (10 mM sodium phosphate, 500 mM NaCl, 0.5% BSA, 0.05% Tween-20, pH 7.4), conjugate diluent (10 mM sodium phosphate, 150 mM NaCl, 0.5% BSA, 0.05% Tween-20, pH 7.4), wash fluid (10 mM sodium phosphate, 300 mM NaCl, 0.05% Tween-20, pH 7.4), substrate buffer (50 mM sodium citrate and hydrogen peroxide, pH 5.0), TMB solution (3,3′,5,5′-tetramethylbenzidine), stop solution (2M sulphuric acid) were taken from EIA Kit for detection of antibody to HIV “Peptoscreen-2” (Amercard Ltd, Russia), conjugate of rabbit antibody to mouse IgG with HRPO (custom made), avidin from egg white (Imtek, Russia). Negative controls of 5 sera were pooled from the nonimmune BALB/c female mouse. Dispensing of solutions with Finnpipette digital adjustable volume pipettes 0.5-10 μl, 5-40 μl, 20-200 μl, 200-1000 μl, 1-5 ml and 12-channel pipettes 5-50 μl, 50-200 μl. Plate washer ZLE201 (Amersham Inc., UK), incubator at 37° C.—Imperial II (Lab-Line Instruments Inc., USA), EIA plate reader—Luminometer-Photometer LM01A (Immunotech, Beckman Coulter Company, USA).
Test procedure: Peptides for binding on the avidin-coated plate were taken from test-solution for determining the solubility of peptides (chapter 1.3., table 1 and 2) and were dissolved up to 2 mM in sample diluents immediately before the test procedure as shown in Table 3.
EIA plates were coated by adding to a well containing 100 μl of avidin dissolved 10 μg/ml in 50 mM carbonate buffer, pH 9.5 and incubated for 20 h at 20° C. The plates were washed 4 times with wash fluid. Peptides 2 mM, […] in sample diluent and incubated 60 min at 37° C. Control wells contain avidin. The plates were washed 4 times with wash fluid. Serum from each mouse and negative control were diluted 1:100, 1:1000 and 1:10000 in sample diluents and were added to the wells, coated by the corresponding peptide (100 μl per well) and incubated for 1 h at 37° C. The plates were washed 4 times with wash fluid. Conjugates of rabbit anti-mouse IgG antibody with HRPO (dilution of 1:3000 in conjugate diluent) were added to the wells (100 μl per well). The plates were incubated for 0.5 h at 37° C. […]

Data set [1] can be described thus: Testing of peptide solubility. Format: physicochemical.
Data set [2] can be described thus: Testing of peptide solubility. Format: physicochemical. As to conditions: 8M Urea, final concentration 1.1 mg/ml (first solubility table, headed TABLE 1). How it is done: Testing of peptide solubility: Data for peptide solubility are represented in Table 1 and 2. Peptides SEQ ID 5-21 was dissolved in 8M Urea to a final concentration of 1.1 mg/ml.
Where [3] appears, read: 8M Urea, larger weights (TABLE 2), no additional solution.

Turning to “SEQ ID 12: Rat MMP-9 synthetic oligopeptide, sequence CHFPFTFEGRSYLSC”, the “OD 450 Mean values (n = 3-5) for dilution 1:10,000” value (“OD 450 Mean values” below) in the data set on BALB/c female mouse turned out to be 0.661. Also, the Solubility entry in data set [1] (8M Urea plus equal volume 0.1M Na-carbonate buffer, pH 9.5 (TABLE 2)) was “Soluble”; in data set [2] it was “Insoluble”.

With “SEQ ID 16: Flounder MMP-9 synthetic oligopeptide, sequence CHFPFTFEGKSYTSC”, the “OD 450 Mean values” value with BALB/c female mouse came out at 0.823. In addition, the Solubility result in data set [1] (setting [3]) and in data set [2] was “Soluble” each time.

Turning to “SEQ ID 5: Mouse MMP-9 synthetic oligopeptide, sequence DKDGKFGF”, the “OD 450 Mean values” value in the data set on BALB/c female mouse is 0.845. Also, the Solubility entry in data set [1] (setting [3]) and in data set [2] was “Soluble” in each case.

For the substance “SEQ ID 20: Carp MMP-9 synthetic oligopeptide, sequence DKKYGFCPNRDTAVI”, the “OD 450 Mean values” value in the data set on BALB/c female mouse is on record as 0.138. Besides, the Solubility result in data set [1] (setting [3]) and in data set [2] was “Soluble” in each case.

With “SEQ ID 9: Pufferfish MMP-9 synthetic oligopeptide, sequence DKDKKYGF”, the “OD 450 Mean values” value in the data set with BALB/c female mouse was 0.131. The Solubility result in data set [1] (setting [3]) and in data set [2] was “Soluble” throughout.

Take “SEQ ID 10: Rabbit MMP-9 synthetic oligopeptide, sequence DTDRRFGF”: the Solubility result in data set [1] (setting [3]) and in data set [2] was “Soluble” each time.

Regarding “SEQ ID 17: Bovine MMP-9 synthetic oligopeptide, sequence DQDKLYGFCPTRVDA”, the “OD 450 Mean values” value in the data set on BALB/c female mouse is listed as 0.780. Moreover, the Solubility result in data set [1] (setting [3]) and in data set [2] was “Soluble” throughout.

With “SEQ ID 19: Mouse MMP-9 synthetic oligopeptide, sequence DQDKLYGFCPTRVDA (printed identical to SEQ ID 17)”, the “OD 450 Mean values” value with BALB/c female mouse turned out to be 0.818. The Solubility entry in data set [1] (setting [3]) and in data set [2] was “Soluble” in each case.

With “SEQ ID 21: Rabbit MMP-9 synthetic oligopeptide, sequence DKDKLYGFCPTRADS”, the “OD 450 Mean values” value with BALB/c female mouse is given as 0.411. In addition, the Solubility entry in data set [1] (setting [3]) and in data set [2] was “Soluble” in each case.

For the substance “H-RILAVERYLKDQQLLGIWGCSGKLICTTAVPWNAS-OH (cysteine pairing not given here) [SP35, reference compound]”, the Solubility entry in data set [1] (setting [3]) is listed as “Soluble”.

Regarding “SEQ ID 11: Mouse MMP-9 synthetic oligopeptide, sequence DKDGKFGF (printed identical to SEQ ID 5)”, the “OD 450 Mean values” value with BALB/c female mouse stood at 0.183. Also, the Solubility result in data set [1] (setting [3]) and in data set [2] was “Soluble” throughout.

As to “SEQ ID 18: Rat MMP-9 synthetic oligopeptide, sequence DKADGFCPTRADVTV”, the “OD 450 Mean values” value with BALB/c female mouse turned out to be 0.138. Also, the Solubility entry in data set [1] (setting [3]) and in data set [2] was “Soluble” in each case.

Take “SEQ ID 13: Chicken MMP-9 synthetic oligopeptide, sequence CHFPFIFEGRSYSRC”: the immune response entry in the data set on BALB/c female mouse is “most active”. Moreover, the Solubility result in data set [1] (setting [3]) and in data set [2] was “Soluble” throughout.

Take “SEQ ID 14: European Carp MMP-9 synthetic oligopeptide, sequence CHFPFLFEGTSYSSC”: the “OD 450 Mean values” value in the data set on BALB/c female mouse is 0.394. The Solubility entry in data set [1] (setting [3]) and in data set [2] was “Soluble” each time.

“SEQ ID 6: Bovine MMP-9 synthetic oligopeptide, sequence DADRQFGF”: the “OD 450 Mean values” value with BALB/c female mouse is listed as 0.096. The Solubility result in data set [1] (setting [3]) and in data set [2] was “Soluble” throughout.

“SEQ ID 8: Carp MMP-9 synthetic oligopeptide, sequence DKDKIFGF”: the “OD 450 Mean values” value in the data set with BALB/c female mouse is listed as 0.097. The Solubility entry in data set [1] (setting [3]) and in data set [2] was “Soluble” throughout.

Regarding “SEQ ID 15: Pufferfish MMP-9 synthetic oligopeptide, sequence CHFPFRFQNKPYKHC”, the immune response entry with BALB/c female mouse is “most active”. The Solubility entry in data set [1] (setting [3]) and in data set [2] was “Soluble” each time.

“SEQ ID 7: Rat MMP-9 synthetic oligopeptide, sequence DTDRKYGF”: the “OD 450 Mean values” value in the data set on BALB/c female mouse amounted to 1.610. The Solubility entry in data set [1] (setting [3]) and in data set [2] was “Soluble” throughout.
